Results published in paper PMC6289052.

Assays:
TCF4 DBD (mouse) = assay: PBM; conditions: not given in the material (PBM protein binding as described previously)
USF1 DBD (mouse) = assay: PBM; conditions: not given in the material (PBM protein binding as described previously)

Row | Substance | binding signal (TCF4 DBD (mouse)) [Z-score] | binding signal (USF1 DBD (mouse)) [Z-score]
1 | CAGGTGGT, cytosine | 52 | –
2 | GTCACGTG, cytosine | – | 87
